Data from patent US20250277018A1 (published 2025).

How the values were obtained:
Experiment in all cases: ELISA
4A01v1 = target: 4A01v1
4A01v3-7 = target: 4A01v3-7
4A01v3-8 = target: 4A01v3-8
4A01v3-3 = target: 4A01v3-3
4A01v3-4 = target: 4A01v3-4
4A01v9 = target: 4A01v9
4A01v3 = target: 4A01v3
4A01v3-1 = target: 4A01v3-1
4A01v3-5 = target: 4A01v3-5
4A01v5 = target: 4A01v5
4A01v4 = target: 4A01v4
4A01v6 = target: 4A01v6
4A01v8 = target: 4A01v8

B1: rat (other)
chain: EAHKSEIAHRFKDLGEQHFKGLVLIAFSQYLQKCPYEEHIKLVQEVTDFAKTCVADENAENCDKSIHTLFGDKLCAIPKLRDNYGELADCCAKQEPERNECFLQHKDDNPNLPPFQRPEAEAMCTSFQENPTSFLGHYLHEVARRHPYFYAPELLYYAEKYNEVLTQCCTESDKAACLTPKLDAVKEKALVAAVRQRMKCSSMQRFGERAFKAWAVARMSQRFPNAEFAEITKLATDVTKINKECCHGDLLECADDRAELAKYMCENQATISSKLQACCDKPVLQKSQCLAEIEHDNIPADLPSIAADFVEDKEVCKNYAEAKDVFLGTFLYEYSRRHPDYSVSLLLRLAKKYEATLEKCCAEGDPPACYGTVLAEFQPLVEEPKNLVKTNCELYEKLGEYGFQNAVLVRYTQKAPQVSTPTLVEAARNLGRVGTKCCTLPEAQRLPCVEDYLSAILNRLCVLHEKTPVSEKVTKCCSGSLVERRPCFSALTVDETYVPKEFKAETFTFHSDICTLPDKEKQIKKQTALAELVKHKPKATEDQLKTVMGDFAQFVDKCCKAADKDNCFATEGPNLVARSKEALA
In the case of B1, the Kd (4A01v1) is reported as 0.184 nM, the Kd (4A01v3-7) is reported as 0.123 nM and the Kd (4A01v3-8) is reported as 0.169 nM. For the same binder, the Kd (4A01v3-3) was 0.152 nM, the Kd (4A01v3-4) was 0.252 nM and the Kd (4A01v9) was 0.144 nM. It also gave a Kd (4A01v3) of 0.162 nM, a Kd (4A01v3-1) of 0.13 nM and a Kd (4A01v3-5) of 0.162 nM. The Kd (4A01v5) was 0.26 nM, the Kd (4A01v4) was 0.32 nM and the Kd (4A01v6) was 0.273 nM. It also gave a Kd (4A01v8) of 0.328 nM.
